Results on two molecules are retold here after publication PMC3284512.

The subject of data set [1] is MA3 (DNA, aptamer) AACCGCCCAAATCCCTAAGAGTCGGACTGCAACCTATGCTATCGTTGATGTCTGTCCAAGCAACACAGACACACTACACACGCACA
The experiment in a line: fluorescence quenching of doxorubicin. The conditions noted are these: aqueous solution, 1 h; Dox 3 nM as printed; intercalation; quenching complete at aptamer/Dox 0.1.

Data set [2] addresses T1, MUC1 peptide1 (APDTRPAPG epitope) (UniProt P15941).
T1 chain: APDTRPAPG
The experiment in a line: flow cytometry, bead binding; Hanks buffer (binding buffer), 37 C, 30 min, 200 ul; aptamer DNA heated 95 C 5 min then cooled to 0 C (stated for SELEX pool and Dox loading); pH not stated. Conditions: tags: EDC-coupled to carboxylated magnetic beads; label: 5'-FITC. (In general: In flow cytometry, cells or beads pass a laser one at a time.)

Data set [3] deals with T2, MUC1 peptide2 (entire tandem repeat) (UniProt P15941).
T2 chain: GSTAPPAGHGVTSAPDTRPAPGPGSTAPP
The description is as above. Conditions: tags: EDC-coupled to magnetic beads; label: 5'-FITC.

As to `COc1cccc2c1C(=O)c1c(O)c3c(c(O)c1C2=O)C[C@@](O)(C(=O)CO)C[C@@H]3O[C@H]1C[C@H](N)[C@H](O)[C@H](C)O1`, in data set [1], the binding result is on record as “yes”.

B1: MA3 (ssDNA)
DNA: AACCGCCCAAATCCCTAAGAGTCGGACTGCAACCTATGCTATCGTTGATGTCTGTCCAAGCAACACAGACACACTACACACGCACA
In the case of B1, the Kd in data set [2] amounted to 38.3 nM. In data set [3], the binding result is listed as “binds”.

A word on the Kd: it is a measure of binding affinity in units of concentration. A lower Kd goes with a tighter complex.
